This passage reports Kd results from US20200308270A1 (Zymeworks, published 2020).

The target of the assay is T1, recombinant human HER3 (human, UniProt P21860 20-643).
T1 construct: Bought reagent
The assay can be described thus: SPR (Biacore T200), HER3 captured via anti-His, Fab analyte.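 Further: single cycle kinetics with five Fab concentrations, referenced against a blank flow cell and mock-buffer injections, sensorgrams fit to a 1:1 binding model.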 A general note: SPR reads the build-up and loss of mass on a sensor chip optically.

One may read the Kd as the free concentration of one partner at which half of the binding sites on the other are occupied at equilibrium, for simple one-to-one binding.

Method: HER3 affinity determination in Fabs was carried out as follows. The screening of Fabs (preparative SEC purified) for binding to HER3 antigen occurred in two steps: an indirect capture of HER3 onto the anti-His antibody, followed by the injection of five concentrations of Fabs, for kinetic analysis using single cycle kinetics. […] HER3 was injected at 4-8 μg/mL over the active flow cell for 60 s at a flow rate of 10 μL/min. […] HER3 was not captured on the reference (blank) flow cell. […] The captured HER3 surfaces were regenerated by 10 mM glycine pH 1.5 for 120 s at 30 μL/min to prepare the surfaces for the next injection cycle. At least two mock-buffer injections were performed for each analyte injection and used for referencing. The resulting single cycle kinetics sensorgrams were analyzed using Biacore T200 BiaEvaluation software version 3.0 and fit to the 1:1 binding model.

B1: H3 designed Vlambda-Ckappa chimeric Fab, design 18 (E83F_D85T_T105E) (Fab, name in Kabat numbering, V domains shown)
VH: QVQLQESGGGLVKPGGSLRLSCAASGFTFSSYWMSWVRQAPGKGLEWVANINRDGSASYYVDSVKGRFTISRDDAKNSLYLQMNSLRAEDTAVYYCARDRGVGYFDLWGRGTLVTVSS
VL: QSALTQPASVSGSPGQSITISCTGTSSDVGGYNFVSWYQQHPGKAPKLMIYDVSDRPSGVSDRFSGSKSGNTASLIISGLQADDFATYYCSSYGSSSTHVIFGGGTKVEVLR
For the molecule B1, the Kd came out at 90.5 nM.

B2: H3 Vlambda-Ckappa chimeric Fab (Fab, V domains shown)
VH: QVQLQESGGGLVKPGGSLRLSCAASGFTFSSYWMSWVRQAPGKGLEWVANINRDGSASYYVDSVKGRFTISRDDAKNSLYLQMNSLRAEDTAVYYCARDRGVGYFDLWGRGTLVTVSS
VL: QSALTQPASVSGSPGQSITISCTGTSSDVGGYNFVSWYQQHPGKAPKLMIYDVSDRPSGVSDRFSGSKSGNTASLIISGLQADDEADYYCSSYGSSSTHVIFGGGTKVTVLR
notes: Parent chimeric Fab without stabilizing substitutions; also called chimera; VL-CK chimeric Fab
As to B2, the Kd stood at 92.7 nM.

B3: H3 designed Vlambda-Ckappa chimeric Fab, design 23 (E83V) (Fab, name in Kabat numbering, V domains shown)
VH: QVQLQESGGGLVKPGGSLRLSCAASGFTFSSYWMSWVRQAPGKGLEWVANINRDGSASYYVDSVKGRFTISRDDAKNSLYLQMNSLRAEDTAVYYCARDRGVGYFDLWGRGTLVTVSS
VL: QSALTQPASVSGSPGQSITISCTGTSSDVGGYNFVSWYQQHPGKAPKLMIYDVSDRPSGVSDRFSGSKSGNTASLIISGLQADDVADYYCSSYGSSSTHVIFGGGTKVTVLR
For B3, the Kd was 95.7 nM.

B4: H3 designed Vlambda-Ckappa chimeric Fab, design 16 (E83F_V106I) (Fab, name in Kabat numbering, V domains shown)
VH: QVQLQESGGGLVKPGGSLRLSCAASGFTFSSYWMSWVRQAPGKGLEWVANINRDGSASYYVDSVKGRFTISRDDAKNSLYLQMNSLRAEDTAVYYCARDRGVGYFDLWGRGTLVTVSS
VL: QSALTQPASVSGSPGQSITISCTGTSSDVGGYNFVSWYQQHPGKAPKLMIYDVSDRPSGVSDRFSGSKSGNTASLIISGLQADDFADYYCSSYGSSSTHVIFGGGTKVTILR
For B4, the dissociation constant Kd came to 88.5 nM.

B5: H3 designed Vlambda-Ckappa chimeric Fab, design 33 (E83I_D85T_T105E) (Fab, name in Kabat numbering, V domains shown)
VH: QVQLQESGGGLVKPGGSLRLSCAASGFTFSSYWMSWVRQAPGKGLEWVANINRDGSASYYVDSVKGRFTISRDDAKNSLYLQMNSLRAEDTAVYYCARDRGVGYFDLWGRGTLVTVSS
VL: QSALTQPASVSGSPGQSITISCTGTSSDVGGYNFVSWYQQHPGKAPKLMIYDVSDRPSGVSDRFSGSKSGNTASLIISGLQADDIATYYCSSYGSSSTHVIFGGGTKVEVLR
With B5, the Kd was determined as 89 nM.

B6: H3 designed Vlambda-Ckappa chimeric Fab, design 26 (E83V_D85T) (Fab, name in Kabat numbering, V domains shown)
VH: QVQLQESGGGLVKPGGSLRLSCAASGFTFSSYWMSWVRQAPGKGLEWVANINRDGSASYYVDSVKGRFTISRDDAKNSLYLQMNSLRAEDTAVYYCARDRGVGYFDLWGRGTLVTVSS
VL: QSALTQPASVSGSPGQSITISCTGTSSDVGGYNFVSWYQQHPGKAPKLMIYDVSDRPSGVSDRFSGSKSGNTASLIISGLQADDVATYYCSSYGSSSTHVIFGGGTKVTVLR
For the molecule B6, the Kd turned out to be 82.1 nM.

B7: H3 designed Vlambda-Ckappa chimeric Fab, design 14 (E83F) (Fab, name in Kabat numbering, V domains shown)
VH: QVQLQESGGGLVKPGGSLRLSCAASGFTFSSYWMSWVRQAPGKGLEWVANINRDGSASYYVDSVKGRFTISRDDAKNSLYLQMNSLRAEDTAVYYCARDRGVGYFDLWGRGTLVTVSS
VL: QSALTQPASVSGSPGQSITISCTGTSSDVGGYNFVSWYQQHPGKAPKLMIYDVSDRPSGVSDRFSGSKSGNTASLIISGLQADDFADYYCSSYGSSSTHVIFGGGTKVTVLR
Take B7: the Kd amounted to 92.6 nM.

B8: H3 designed Vlambda-Ckappa chimeric Fab, design 24 (E83V_T105E) (Fab, name in Kabat numbering, V domains shown)
VH: QVQLQESGGGLVKPGGSLRLSCAASGFTFSSYWMSWVRQAPGKGLEWVANINRDGSASYYVDSVKGRFTISRDDAKNSLYLQMNSLRAEDTAVYYCARDRGVGYFDLWGRGTLVTVSS
VL: QSALTQPASVSGSPGQSITISCTGTSSDVGGYNFVSWYQQHPGKAPKLMIYDVSDRPSGVSDRFSGSKSGNTASLIISGLQADDVADYYCSSYGSSSTHVIFGGGTKVEVLR
As to B8, the Kd was 102 nM.

B9: H3 designed Vlambda-Ckappa chimeric Fab, design 32 (E83I_D85T) (Fab, name in Kabat numbering, V domains shown)
VH: QVQLQESGGGLVKPGGSLRLSCAASGFTFSSYWMSWVRQAPGKGLEWVANINRDGSASYYVDSVKGRFTISRDDAKNSLYLQMNSLRAEDTAVYYCARDRGVGYFDLWGRGTLVTVSS
VL: QSALTQPASVSGSPGQSITISCTGTSSDVGGYNFVSWYQQHPGKAPKLMIYDVSDRPSGVSDRFSGSKSGNTASLIISGLQADDIATYYCSSYGSSSTHVIFGGGTKVTVLR
As for B9, the Kd is 83.8 nM.

B10: H3 designed Vlambda-Ckappa chimeric Fab, design 21 (E83F_D85V_T105E_V106I) (Fab, name in Kabat numbering, V domains shown)
VH: QVQLQESGGGLVKPGGSLRLSCAASGFTFSSYWMSWVRQAPGKGLEWVANINRDGSASYYVDSVKGRFTISRDDAKNSLYLQMNSLRAEDTAVYYCARDRGVGYFDLWGRGTLVTVSS
VL: QSALTQPASVSGSPGQSITISCTGTSSDVGGYNFVSWYQQHPGKAPKLMIYDVSDRPSGVSDRFSGSKSGNTASLIISGLQADDFAVYYCSSYGSSSTHVIFGGGTKVEILR
For the molecule B10, the dissociation constant Kd came to 82.6 nM.

B11: H3 designed Vlambda-Ckappa chimeric Fab, design 15 (E83F_T105E) (Fab, name in Kabat numbering, V domains shown)
VH: QVQLQESGGGLVKPGGSLRLSCAASGFTFSSYWMSWVRQAPGKGLEWVANINRDGSASYYVDSVKGRFTISRDDAKNSLYLQMNSLRAEDTAVYYCARDRGVGYFDLWGRGTLVTVSS
VL: QSALTQPASVSGSPGQSITISCTGTSSDVGGYNFVSWYQQHPGKAPKLMIYDVSDRPSGVSDRFSGSKSGNTASLIISGLQADDFADYYCSSYGSSSTHVIFGGGTKVEVLR
In the case of B11, the Kd is 90.8 nM.

B12: H3 designed Vlambda-Ckappa chimeric Fab, design 29 (E83V_D85T_T105E_V106I) (Fab, name in Kabat numbering, V domains shown)
VH: QVQLQESGGGLVKPGGSLRLSCAASGFTFSSYWMSWVRQAPGKGLEWVANINRDGSASYYVDSVKGRFTISRDDAKNSLYLQMNSLRAEDTAVYYCARDRGVGYFDLWGRGTLVTVSS
VL: QSALTQPASVSGSPGQSITISCTGTSSDVGGYNFVSWYQQHPGKAPKLMIYDVSDRPSGVSDRFSGSKSGNTASLIISGLQADDVATYYCSSYGSSSTHVIFGGGTKVEILR
In the case of B12, the Kd amounted to 77 nM.

B13: H3 designed Vlambda-Ckappa chimeric Fab, design 31 (E83I_T105E) (Fab, name in Kabat numbering, V domains shown)
VH: QVQLQESGGGLVKPGGSLRLSCAASGFTFSSYWMSWVRQAPGKGLEWVANINRDGSASYYVDSVKGRFTISRDDAKNSLYLQMNSLRAEDTAVYYCARDRGVGYFDLWGRGTLVTVSS
VL: QSALTQPASVSGSPGQSITISCTGTSSDVGGYNFVSWYQQHPGKAPKLMIYDVSDRPSGVSDRFSGSKSGNTASLIISGLQADDIADYYCSSYGSSSTHVIFGGGTKVEVLR
For the molecule B13, the Kd turned out to be 82.7 nM.

B14: H3 designed Vlambda-Ckappa chimeric Fab, design 20 (E83F_D85T_T105E_V106I) (Fab, name in Kabat numbering, V domains shown)
VH: QVQLQESGGGLVKPGGSLRLSCAASGFTFSSYWMSWVRQAPGKGLEWVANINRDGSASYYVDSVKGRFTISRDDAKNSLYLQMNSLRAEDTAVYYCARDRGVGYFDLWGRGTLVTVSS
VL: QSALTQPASVSGSPGQSITISCTGTSSDVGGYNFVSWYQQHPGKAPKLMIYDVSDRPSGVSDRFSGSKSGNTASLIISGLQADDFATYYCSSYGSSSTHVIFGGGTKVEILR
Take B14: the Kd was 85.8 nM.

B15: H3 designed Vlambda-Ckappa chimeric Fab, design 19 (E83F_D85V_T105E) (Fab, name in Kabat numbering, V domains shown)
VH: QVQLQESGGGLVKPGGSLRLSCAASGFTFSSYWMSWVRQAPGKGLEWVANINRDGSASYYVDSVKGRFTISRDDAKNSLYLQMNSLRAEDTAVYYCARDRGVGYFDLWGRGTLVTVSS
VL: QSALTQPASVSGSPGQSITISCTGTSSDVGGYNFVSWYQQHPGKAPKLMIYDVSDRPSGVSDRFSGSKSGNTASLIISGLQADDFAVYYCSSYGSSSTHVIFGGGTKVEVLR
As for B15, the Kd amounted to 83 nM.

B16: H3 designed Vlambda-Ckappa chimeric Fab, design 22 (E83F_D85T_T105E_V106I_L106AK) (Fab, V domains shown)
VH: QVQLQESGGGLVKPGGSLRLSCAASGFTFSSYWMSWVRQAPGKGLEWVANINRDGSASYYVDSVKGRFTISRDDAKNSLYLQMNSLRAEDTAVYYCARDRGVGYFDLWGRGTLVTVSS
VL: QSALTQPASVSGSPGQSITISCTGTSSDVGGYNFVSWYQQHPGKAPKLMIYDVSDRPSGVSDRFSGSKSGNTASLIISGLQADDFATYYCSSYGSSSTHVIFGGGTKVEIKR
As for B16, the Kd worked out at 80.5 nM.

B17: H3 designed Vlambda-Ckappa chimeric Fab, design 30 (E83I) (Fab, name in Kabat numbering, V domains shown)
VH: QVQLQESGGGLVKPGGSLRLSCAASGFTFSSYWMSWVRQAPGKGLEWVANINRDGSASYYVDSVKGRFTISRDDAKNSLYLQMNSLRAEDTAVYYCARDRGVGYFDLWGRGTLVTVSS
VL: QSALTQPASVSGSPGQSITISCTGTSSDVGGYNFVSWYQQHPGKAPKLMIYDVSDRPSGVSDRFSGSKSGNTASLIISGLQADDIADYYCSSYGSSSTHVIFGGGTKVTVLR
With B17, the Kd was found to be 95.1 nM.

B18: H3 designed Vlambda-Ckappa chimeric Fab, design 27 (E83V_D85T_T105E) (Fab, name in Kabat numbering, V domains shown)
VH: QVQLQESGGGLVKPGGSLRLSCAASGFTFSSYWMSWVRQAPGKGLEWVANINRDGSASYYVDSVKGRFTISRDDAKNSLYLQMNSLRAEDTAVYYCARDRGVGYFDLWGRGTLVTVSS
VL: QSALTQPASVSGSPGQSITISCTGTSSDVGGYNFVSWYQQHPGKAPKLMIYDVSDRPSGVSDRFSGSKSGNTASLIISGLQADDVATYYCSSYGSSSTHVIFGGGTKVEVLR
For the molecule B18, the Kd amounted to 84.1 nM.

B19: H3 designed Vlambda-Ckappa chimeric Fab, design 28 (E83V_D85V_T105E) (Fab, name in Kabat numbering, V domains shown)
VH: QVQLQESGGGLVKPGGSLRLSCAASGFTFSSYWMSWVRQAPGKGLEWVANINRDGSASYYVDSVKGRFTISRDDAKNSLYLQMNSLRAEDTAVYYCARDRGVGYFDLWGRGTLVTVSS
VL: QSALTQPASVSGSPGQSITISCTGTSSDVGGYNFVSWYQQHPGKAPKLMIYDVSDRPSGVSDRFSGSKSGNTASLIISGLQADDVAVYYCSSYGSSSTHVIFGGGTKVEVLR
For B19, the dissociation constant (Kd) amounted to 89.2 nM.

B20: H3 designed Vlambda-Ckappa chimeric Fab, design 25 (E83V_V106I) (Fab, name in Kabat numbering, V domains shown)
VH: QVQLQESGGGLVKPGGSLRLSCAASGFTFSSYWMSWVRQAPGKGLEWVANINRDGSASYYVDSVKGRFTISRDDAKNSLYLQMNSLRAEDTAVYYCARDRGVGYFDLWGRGTLVTVSS
VL: QSALTQPASVSGSPGQSITISCTGTSSDVGGYNFVSWYQQHPGKAPKLMIYDVSDRPSGVSDRFSGSKSGNTASLIISGLQADDVADYYCSSYGSSSTHVIFGGGTKVTILR
In the case of B20, the Kd came to 80.6 nM.

B21: H3 designed Vlambda-Ckappa chimeric Fab, design 17 (E83F_D85T) (Fab, name in Kabat numbering, V domains shown)
VH: QVQLQESGGGLVKPGGSLRLSCAASGFTFSSYWMSWVRQAPGKGLEWVANINRDGSASYYVDSVKGRFTISRDDAKNSLYLQMNSLRAEDTAVYYCARDRGVGYFDLWGRGTLVTVSS
VL: QSALTQPASVSGSPGQSITISCTGTSSDVGGYNFVSWYQQHPGKAPKLMIYDVSDRPSGVSDRFSGSKSGNTASLIISGLQADDFATYYCSSYGSSSTHVIFGGGTKVTVLR
In the case of B21, the Kd amounted to 83.1 nM.
